From patent US20260209348A1 (University of California, published 2026)
Positions count from the first letter of the chain named.

B1: h6E6-002 (antibody, V domains shown)
VH: EVQLVESGGGLVKPGGSLRLSCAASGFTFSSYGISWVRQAPGKGLEWVSTISSGGGYTHYAESVKGRFTISRDNAKNSLYLQMNSLRAEDTAVYYCARHPRDFSYAMDYWGQGTTVTVSS
VL: EIVMTQSPATLSVSPGERATLSCRASQDVGHYLAWYQQKPGQAPRLLIYWASTRHTGIPARFSGSGSGTEFTLTISSLQSEDFAVYYCQQYNIYPWTFGQGTKVEIK
notes: also called clone 2
B2: h6E6-014 (antibody, V domains shown)
VH: B1 VH with I34M, S35N, A61V, E62D, M107T
VL: B1 VL with L33V
notes: also called clone 14
B3: h6E6-038 (antibody, V domains shown)
VH: B1 VH with S31R, I34M, E62P, L86P, M107Q
VL: B1 VL with R24K
notes: also called clone 38
B4: h6E6-012 (antibody, V domains shown)
VH: B1 VH with S31A, I34A, T50S, A61V, M107Q
VL: B1 VL with H55A
notes: also called clone 12
B5: h6E6-052 (antibody, V domains shown)
VH: B1 VH with S31H, I34T, M107I
VL: B1 VL with R24K, H55A
notes: also called clone 52
B6: h6E6-062 (antibody, V domains shown)
VH: B1 VH with I34H, H59Y, M107H
VL: B1 VL with R24K, H55A
notes: also called clone 62
B7: h6E6-023 (antibody, V domains shown)
VH: B1 VH with I34M, E62P, M107L
VL: B1 VL with R24K, H55A
notes: also called clone 23
B8: h6E6-003 (antibody, V domains shown)
VH: B1 VH with S31Q, I34T, M107H
VL: B1 VL
notes: also called clone 3
B9: h6E6-054 (antibody, V domains shown)
VH: B1 VH with S31N, I34V, A61V, E62T, M107L
VL: B1 VL with R24K, L33V, H55A
notes: also called clone 54
B10: h6E6-033 (antibody, V domains shown)
VH: B1 VH with S31T, I34M, A61V, E62T
VL: B1 VL with R24K, L33V
notes: also called clone 33
B11: h6E6-047 (antibody, V domains shown)
VH: B1 VH with S31K, I34M, L45P, E62T, M107L
VL: B1 VL with L33V, H55A
notes: also called clone 47
B12: h6E6-010 (antibody, V domains shown)
VH: B1 VH with S31N, I34M, A61V, E62A
VL: B1 VL with R24K, H55A
notes: also called clone 10
B13: h6E6-050 (antibody, V domains shown)
VH: B1 VH with S31R, I34M, A61V, E62D, M107H
VL: B1 VL with R24K, H55A
notes: also called clone 50
B14: h6E6-064 (antibody, V domains shown)
VH: B1 VH with S31H, T50S
VL: B1 VL with L33V, H55A
notes: also called clone 64
B15: h6E6-025 (antibody, V domains shown)
VH: B1 VH with S31H, I34H, A61V
VL: B1 VL with L33V, H55A
notes: also called clone 25
B16: h6E6-022 (antibody, V domains shown)
VH: B1 VH with S31K, I34T, E62P
VL: B1 VL with R24K, L33V, H55A
notes: also called clone 22
B17: h6E6-071 (antibody, V domains shown)
VH: B1 VH with S31H, I34M, M107F
VL: B1 VL with R24K
notes: also called clone 71
B18: h6E6-049 (antibody, V domains shown)
VH: B1 VH with S31N, I34M, T50S
VL: B1 VL with R24K, L33V, H55A
notes: also called clone 49
B19: h6E6-030 (antibody, V domains shown)
VH: B1 VH with I34M, E62A
VL: B1 VL with R24K, H55A
notes: also called clone 30
B20: h6E6-046 (antibody, V domains shown)
VH: B1 VH with S31R, E62T
VL: B1 VL with R24K, L33V
notes: also called clone 46
B21: h6E6-005 (antibody, V domains shown)
VH: B1 VH with S31G, I34L, E62A
VL: B1 VL with R24K, L33V, H55A
notes: also called clone 5
B22: h6E6-031 (antibody, V domains shown)
VH: B1 VH with I34M, A75D, M107I
VL: B1 VL with L33V
notes: also called clone 31
B23: h6E6-045 (antibody, V domains shown)
VH: B1 VH with S31G, I34M, A61V, E62Q
VL: B1 VL with R24K, L33V, H55A
notes: also called clone 45
B24: h6E6-051 (antibody, V domains shown)
VH: B1 VH with S31N, I34M, A61V, E62D, M107L
VL: B1 VL with R24K, L33V, H55A
notes: also called clone 51
B25: h6E6-009 (antibody, V domains shown)
VH: B1 VH with S31G, I34M, S35N, M107A
VL: B1 VL with R24K, H55A
notes: also called clone 9
B26: h6E6-015 (antibody, V domains shown)
VH: B1 VH with S31N, I34L, A61V, E62T, M107L
VL: B1 VL with R24K, L33V
notes: also called clone 15
B27: h6E6-069 (antibody, V domains shown)
VH: B1 VH with S31K, I34V, A61V
VL: B1 VL with R24K, H55A
notes: also called clone 69
B28: h6E6-026 (antibody, V domains shown)
VH: B1 VH with S31R, I34M, E62A
VL: B1 VL with R24K, L33V
notes: also called clone 26
B29: h6E6-020 (antibody, V domains shown)
VH: B1 VH with S31K, I34V, E62P
VL: B1 VL with R24K, H55A
notes: also called clone 20
B30: h6E6-016 (antibody, V domains shown)
VH: B1 VH with S31A, I34M, E62T, M107Q
VL: B1 VL with R24K, L33V
notes: also called clone 16
B31: h6E6-076 (antibody, V domains shown)
VH: B1 VH with S31G, I34M, A61V, M107L
VL: B1 VL with R24K, H55A
notes: also called clone 76
B32: h6E6-006 (antibody, V domains shown)
VH: B1 VH with S31T, I34M, E62T, M107H
VL: B1 VL with H55A
notes: also called clone 6
B33: h6E6-017 (antibody, V domains shown)
VH: B1 VH with S31R, I34M, T50S
VL: B1 VL with R24K
notes: also called clone 17
B34: h6E6-032 (antibody, V domains shown)
VH: B1 VH with S31N, I34T
VL: B1 VL with R24K, H55A
notes: also called clone 32
B35: h6E6-024 (antibody, V domains shown)
VH: B1 VH with S31E, I34M, A61V
VL: B1 VL with L33V, H55A
notes: also called clone 24

Target: human ROR2 (human, UniProt Q01974 34-403, limits assumed)
Sequence (Q01974 34-403 limits assumed): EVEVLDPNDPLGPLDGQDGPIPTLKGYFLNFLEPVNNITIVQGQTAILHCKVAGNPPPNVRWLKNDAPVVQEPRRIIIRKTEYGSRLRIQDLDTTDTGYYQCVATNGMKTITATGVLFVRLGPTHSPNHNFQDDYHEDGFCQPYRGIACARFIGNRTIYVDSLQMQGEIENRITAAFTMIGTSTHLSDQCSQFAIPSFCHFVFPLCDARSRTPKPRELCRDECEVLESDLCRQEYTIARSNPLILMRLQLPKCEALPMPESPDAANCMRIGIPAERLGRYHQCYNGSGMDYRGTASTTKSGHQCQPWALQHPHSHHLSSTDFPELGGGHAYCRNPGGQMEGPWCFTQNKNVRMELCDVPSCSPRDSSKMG
Experiment: SPR
Method in brief: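 Humanized monoclonal antibodies against human ROR2, made by transferring murine complementarity-determining regions into human acceptor frameworks with the constant region switched to human IgG1, were assessed by surface plasmon resonance. Their affinity for human ROR2 is expressed as the dissociation constant (Kd) in nM.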

Kd [pM]	Binder
284	B1
57	B2
147	B3
1400	B4
533	B5
839	B6
200	B7
321	B8
178	B9
144	B10
86	B11
230	B12
482	B13
5800	B14
509	B15
271	B16
582	B17
1400	B18

Kd [pM]	Binder
221	B19
527	B20
476	B21
103	B22
134	B23
160	B24
215	B25
386	B26
407	B27
335	B28
629	B29
37	B30
203	B31
166	B32
4000	B33
479	B34
605	B35
